Source: patent US20060105951A1
pIC50: −log10 of the molar value.

What was measured:
[1] = biological target: melanocortin 4 receptor (MC4R) (Homo sapiens) (UniProt P32245); assay: cell-based or functional assay
[2] = biological target: melanocortin 4 receptor (MC4R) (Homo sapiens) (UniProt P32245); assay: competitive binding assay (range of obtained IC50 values); competitor [125I]-NDP-alpha-MSH

UniProt P32245, sequence (P32245 whole entry V103I): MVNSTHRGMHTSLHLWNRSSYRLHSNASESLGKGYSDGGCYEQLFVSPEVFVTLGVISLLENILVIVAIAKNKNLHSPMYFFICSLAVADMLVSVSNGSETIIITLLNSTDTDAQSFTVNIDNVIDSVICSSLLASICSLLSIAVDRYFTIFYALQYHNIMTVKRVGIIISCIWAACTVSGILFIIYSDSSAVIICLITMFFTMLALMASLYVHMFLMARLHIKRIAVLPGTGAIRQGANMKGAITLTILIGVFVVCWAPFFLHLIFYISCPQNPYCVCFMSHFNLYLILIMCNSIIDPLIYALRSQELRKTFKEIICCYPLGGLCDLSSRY

EC50, cAMP production, CHOK1 Clone 1 (high MC4R expression) [1]: 0.52 nM
EC50, cAMP production, CHOK1 Clone 2 (low MC4R expression) [1]: 0.52 nM
pIC50 [2]: 7.52 to 8.30
Substance: melanotan II (MTII) (peptide)
